# Source: the supplement of paper PMC7877785
# ± gives the uncertainty stated by the source.
# Test: self-splicing fitness, log relative to wild type (ln ratio); higher = more splicing; Tetrahymena group I intron in knt gene, E. coli kanamycin selection, DiMSum; sequences stand for … in CUCUCU…GGAGGGAAAAGUUAUCAGGCAUGCACCUGGUAGCUAGUCUUUAAACCAAUAGAUUGCAUCGGUUUAAAAGGCAAGACCGUCAAAUUGCGGGAAAGGGGUCAACAGCCGUUCAGUACCAAGUCUCAGGGGAAACUUUGAGAUGGCCUUGCAAAGGGUAUGGUAAUAAGCUGACGGACAUGGUCCUAACCACGCAGCCAAGUCCUAAGUCAACAGAUCUUCUGUUGAUAUGGAUGCAGUUCACAGACUAAAUGUCGGUCGGGGAAGAUGUAUUCUUCUCAUAAGAUAUAGUCGGACCUCUCCUUAAUGGGAGCUAGCGGAUGAAGUGAUGCAACACUGGAGCCGCUGGGAACUAAUUUGUAUGCGAAAGUAUAUUGAUUAGUUUUGGAGUACUCGUGGUCG
# In short: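 Pooled colonies went to amplicon sequencing on an Illumina HiSeq 2500 after six replicate transformations. The plates were LB agar with 100 μg/mL carbenicillin, 50 μM IPTG and 0.2% rhamnose, with or without 25 μg/mL kanamycin, incubated overnight at 37°C or 30°C. The E. coli BL21(DE3) library had all eight P1ex-region intron nucleotides randomised, the intron placed in the knt kanamycin-resistance gene on pET-22b(+). DiMSum fitness is the error-weighted combination of replicate fold changes, kanamycin against none, normalised to wild type.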
Sequence,self-splicing fitness (ln) (30 °C),self-splicing fitness (ln) (37 °C)
CCAUAGCAAUAUUACGUUAG,-3.33 ± 0.13,-2.01 ± 0.13
UGGGAGCAAUAUUACGCAUC,-3 ± 0.32,-2.58 ± 0.38
AUGUAGCAAUAUUACGAGAA,-2.68 ± 0.39,-1.01 ± 0.22
AAAGAGCAAUAUUACGUGGA,-3.36 ± 0.32,-2.67 ± 0.26
AGUAAGCAAUAUUACGGACG,-0.782 ± 0.093,-0.415 ± 0.12
GGGAAGCAAUAUUACGGAAC,-2.09 ± 0.2,-2.13 ± 0.27
AUGAAGCAAUAUUACGGUGU,-1.33 ± 0.062,-0.601 ± 0.078
GGACAGCAAUAUUACGGCGC,0.0232 ± 0.12,0.203 ± 0.13
UCGCAGCAAUAUUACGGAUC,-3.82 ± 0.35,–
AAUAAGCAAUAUUACGUAUG,-2.2 ± 0.11,-0.966 ± 0.12
UCACAGCAAUAUUACGCGGC,-3.63 ± 0.23,-2.5 ± 0.28
GUUCAGCAAUAUUACGAUCU,-0.337 ± 0.095,0.0505 ± 0.12
UUUCAGCAAUAUUACGGGAC,-2.81 ± 0.21,-1.4 ± 0.19
UACAAGCAAUAUUACGUUCG,-0.617 ± 0.074,0.321 ± 0.099
UUUGAGCAAUAUUACGGUUC,-3.67 ± 0.37,-3.69 ± 0.46
GUGCAGCAAUAUUACGUCUU,-1.33 ± 0.083,-0.0365 ± 0.11
UAACAGCAAUAUUACGCGUC,-4.61 ± 0.34,-2.7 ± 0.18
UCGGAGCAAUAUUACGAUUC,-0.553 ± 0.26,-0.938 ± 0.24
UGACAGCAAUAUUACGGGCC,-3.34 ± 0.22,-2.23 ± 0.27

Sequence,self-splicing fitness (ln) (30 °C),self-splicing fitness (ln) (37 °C)
GUCUAGCAAUAUUACGCGUA,-0.384 ± 0.081,0.391 ± 0.09
GGGUAGCAAUAUUACGGCAC,-0.322 ± 0.14,-0.0485 ± 0.18
GCCAAGCAAUAUUACGCGUA,-0.871 ± 0.089,-0.13 ± 0.089
CUAAAGCAAUAUUACGUGCA,-2.77 ± 0.2,-1.91 ± 0.18
UGAAAGCAAUAUUACGUUUA,-0.985 ± 0.066,-0.471 ± 0.074
GUAUAGCAAUAUUACGAUCA,-1.33 ± 0.2,-0.768 ± 0.16
AAACAGCAAUAUUACGUCAG,-3.36 ± 0.12,-2.41 ± 0.12
CAUCAGCAAUAUUACGCCGG,-0.415 ± 0.086,-0.327 ± 0.11
CCAGAGCAAUAUUACGAACG,-0.512 ± 0.081,0.191 ± 0.1
UCGCAGCAAUAUUACGCACU,-2.21 ± 0.18,-0.563 ± 0.2
GGGCAGCAAUAUUACGCGAG,-0.948 ± 0.094,-0.664 ± 0.098
CCAUAGCAAUAUUACGUUGU,-4.79 ± 0.41,-2.66 ± 0.19
AUGCAGCAAUAUUACGUCAG,-2.17 ± 0.092,-1.12 ± 0.11
CAUUAGCAAUAUUACGAGGU,-3.01 ± 0.27,-2.66 ± 0.3
AGACAGCAAUAUUACGUGCU,-3.14 ± 0.12,-1.56 ± 0.085
AGCCAGCAAUAUUACGUCAU,-2.29 ± 0.12,-0.981 ± 0.15
GGCGAGCAAUAUUACGCUUG,–,-2.71 ± 0.48
CAUAAGCAAUAUUACGCGCA,-1.4 ± 0.11,-0.55 ± 0.11
GAUGAGCAAUAUUACGAAAC,-3.2 ± 0.26,-2.43 ± 0.24
